Source: paper PMC5191963 (Hepatology (Baltimore, Md.), 2016)
Where two headings read alike, the source gives them in different places.

T1: GST-tagged AIM2 (Invitrogen) (UniProt O14862 1-343)
T1 sequence (looked up): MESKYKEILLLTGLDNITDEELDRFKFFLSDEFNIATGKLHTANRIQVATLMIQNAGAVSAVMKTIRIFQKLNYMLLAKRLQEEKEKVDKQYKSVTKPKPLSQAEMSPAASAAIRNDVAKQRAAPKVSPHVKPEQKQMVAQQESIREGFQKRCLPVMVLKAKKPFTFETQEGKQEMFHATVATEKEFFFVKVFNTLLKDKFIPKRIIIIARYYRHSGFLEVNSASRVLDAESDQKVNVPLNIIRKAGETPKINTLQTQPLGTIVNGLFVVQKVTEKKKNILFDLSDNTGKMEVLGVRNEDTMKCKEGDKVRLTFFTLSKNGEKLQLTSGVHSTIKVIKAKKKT


Experiments:
Experiment in all cases: BLI
[1] = biological target: T1, GST-tagged AIM2 (Invitrogen)
[2] = biological target: T1, GST-tagged AIM2 (Invitrogen); remark: listed apart in the source
[3] = biological target: T1, GST-tagged AIM2 (Invitrogen); remark: listed apart in the source
[4] = biological target: T1, GST-tagged AIM2 (Invitrogen); remark: listed apart in the source
[5] = biological target: T1, GST-tagged AIM2 (Invitrogen); remark: listed apart in the source

Binder	Kd [1] [nM]	koff [1] [s⁻¹]	kon [1] [M⁻¹ s⁻¹]	other results
Recombinant HMGB1 A box (disulfide form, not treated with DTT) (domain or fragment, disulfide form (the paper calls the A box without DTT its disulfide form)) MGKGDPKKPRGKMSSYAFFVQTCREEHKKKHPDASVNFSEFSKKCSERWKTMSAKEKGKFEDMAKADKARYEREMKTYI	41	0.00261	64000	
Recombinant HMGB1 (disulfide HMGB1, not treated with DTT) (natural protein, human, UniProt P09429 1-215, looked up, disulfide bond between cysteines 23 and 45 (the paper calls the protein without DTT disulfide HMGB1)) MGKGDPKKPRGKMSSYAFFVQTCREEHKKKHPDASVNFSEFSKKCSERWKTMSAKEKGKFEDMAKADKARYEREMKTYIPPKGETKKKFKDPNAPKRPPSAFFLFCSEYRPKIKGEHPGLSIGDVAKKLGEMWNNTAADDKQPYEKKAAKLKEKYEKDIAAYRAKGKPDAAKKGVVKAEKSKKKKEEEEDEEDEEDEEEEEDEEDEDEEEDDDDE	23	0.00034	14000	Kd [2]: 20 nM; koff [2]: 0.00034 s⁻¹; kon [2]: 17000 M⁻¹ s⁻¹; Kd [3]: 8 nM; koff [3]: 0.00014 s⁻¹; kon [3]: 17000 M⁻¹ s⁻¹; Kd [4]: 25 nM; koff [4]: 0.00033 s⁻¹; kon [4]: 13000 M⁻¹ s⁻¹
Recombinant HMGB1, fully reduced all-thiol form (5 mM DTT) (natural protein, human, UniProt P09429 1-215, looked up) MGKGDPKKPRGKMSSYAFFVQTCREEHKKKHPDASVNFSEFSKKCSERWKTMSAKEKGKFEDMAKADKARYEREMKTYIPPKGETKKKFKDPNAPKRPPSAFFLFCSEYRPKIKGEHPGLSIGDVAKKLGEMWNNTAADDKQPYEKKAAKLKEKYEKDIAAYRAKGKPDAAKKGVVKAEKSKKKKEEEEDEEDEEDEEEEEDEEDEDEEEDDDDE				Kd [5]: 13 nM; koff [5]: 0.00038 s⁻¹; kon [5]: 30000 M⁻¹ s⁻¹

Further lines, with some results ahead:

Kd [1] [nM]	koff [1] [s⁻¹]	kon [1] [M⁻¹ s⁻¹]	Binder	other results
13	0.00036	27000	Recombinant HMGB1(C45S) (natural protein, human, UniProt P09429 1-215, looked up) MGKGDPKKPRGKMSSYAFFVQTCREEHKKKHPDASVNFSEFSKKSSERWKTMSAKEKGKFEDMAKADKARYEREMKTYIPPKGETKKKFKDPNAPKRPPSAFFLFCSEYRPKIKGEHPGLSIGDVAKKLGEMWNNTAADDKQPYEKKAAKLKEKYEKDIAAYRAKGKPDAAKKGVVKAEKSKKKKEEEEDEEDEEDEEEEEDEEDEDEEEDDDDE	
12	0.0003	25000	Recombinant HMGB1(C23S) (natural protein, human, UniProt P09429 1-215, looked up) MGKGDPKKPRGKMSSYAFFVQTSREEHKKKHPDASVNFSEFSKKCSERWKTMSAKEKGKFEDMAKADKARYEREMKTYIPPKGETKKKFKDPNAPKRPPSAFFLFCSEYRPKIKGEHPGLSIGDVAKKLGEMWNNTAADDKQPYEKKAAKLKEKYEKDIAAYRAKGKPDAAKKGVVKAEKSKKKKEEEEDEEDEEDEEEEEDEEDEDEEEDDDDE	
